In paper PMC4426023 (Cell reports, 2015):

T1: DOT1L repeat motif (Sites 2 and 3, aa. 863–900) (UniProt Q8TEK3 863-900)
T1 chain (looked up): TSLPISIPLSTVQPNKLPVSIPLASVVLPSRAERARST

B1: AF9 ANC1 homology domain (aa. 499–568) (domain or fragment, UniProt P42568 499-568, looked up)
chain: CDKAYLDELVELHRRLMTLRERHILQQIVNLIEETGHFHITNTTFDFDLCSLDKTTVRKLQSYLETSGTS

How the values were obtained:
[1] = target: DOT1L Site 1 peptide, fluorescently tagged (UniProt Q8TEK3); assay: fluorescence polarisation
[2] = target: DOT1L Site 2 peptide, fluorescently tagged (UniProt Q8TEK3); assay: fluorescence polarisation
[3] = target: T1, DOT1L repeat motif (Sites 2 and 3, aa. …); assay: SEC

DOT1L Site 1 peptide, fluorescently tagged, sequence (Q8TEK3 628-653): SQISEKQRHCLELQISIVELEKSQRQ

Molecule | Kd [1] | fold weaker affinity than DOT1L (Site 3) [2] | stoichiometry N [3]
MBP-AF9 AHD (WT) (domain or fragment) | > 2000 nM | 17 fold | 
B1 |  |  | 2
